B1: wild type (WT) estrogen receptor [human (endogenous in and MCF7)] / progesterone receptor [human (endogenous in and MCF7)] (parent)
chain 1: MTMTLHTKASGMALLHQIQGNELEPLNRPQLKIPLERPLGEVYLDSSKPAVYNYPEGAAYEFNAAAAANAQVYGQTGLPYGPGSEAAAFGSNGLGGFPPLNSVSPSPLMLLHPPPQLSPFLQPHGQQVPYYLENEPSGYTVREAGPPAFYRPNSDNRRQGGRERLASTNDKGSMAMESAKETRYCAVCNDYASGYHYGVWSCEGCKAFFKRSIQGHNDYMCPATNQCTIDKNRRKSCQACRLRKCYEVGMMKGGIRKDRRGGRMLKHKRQRDDGEGRGEVGSAGDMRAANLWPSPLMIKRSKKNSLALSLTADQMVSALLDAEPPILYSEYDPTRPFSEASMMGLLTNLADRELVHMINWAKRVPGFVDLTLHDQVHLLECAWLEILMIGLVWRSMEHPGKLLFAPNLLLDRNQGKCVEGMVEIFDMLLATSSRFRMMNLQGEEFVCLKSIILLNSGVYTFLSSTLKSLEEKDHIHRVLDKITDTLIHLMAKAGLTLQQQHQRLAQLLLILSHIRHMSNKGMEHLYSMKCKNVVPLYDLLLEMLDAHRLHAPTSRGGASVEETDQSHLATAGSTSSHSLQKYYITGEAEGFPATV
chain 2: MTELKAKGPRAPHVAGGPPSPEVGSPLLCRPAAGPFPGSQTSDTLPEVSAIPISLDGLLFPRPCQGQDPSDEKTQDQQSLSDVEGAYSRAEATRGAGGSSSSPPEKDSGLLDSVLDTLLAPSGPGQSQPSPPACEVTSSWCLFGPELPEDPPAAPATQRVLSPLMSRSGCKVGDSSGTAAAHKVLPRGLSPARQLLLPASESPHWSGAPVKPSPQAAAVEVEEEDGSESEESAGPLLKGKPRALGGAAAGGGAAAVPPGAAAGGVALVPKEDSRFSAPRVALVEQDAPMAPGRSPLATTVMDFIHVPILPLNHALLAARTRQLLEDESYDGGAGAASAFAPPRSSPCASSTPVAVGDFPDCAYPPDAEPKDDAYPLYSDFQPPALKIKEEEEGAEASARSPRSYLVAGANPAAFPDFPLGPPPPLPPRATPSRPGEAAVTAAPASASVSSASSSGSTLECILYKAEGAPPQQGPFAPPPCKAPGASGCLLPRDGLPSTSASAAAAGAAPALYPALGLNGLPQLGYQAAVLKEGLPQVYPPYLNYLRPDSEASQSPQYSFESLPQKICLICGDEASGCHYGVLTCGSCKVFFKRAMEGQHNYLCAGRNDCIVDKIRRKNCPACRLRKCCQAGMVLGGRKFKKFNKVRVVRALDAVALPQPVGVPNESQALSQRFTFSPGQDIQLIPPLINLLMSIEPDVIYAGHDNTKPDTSSSLLTSLNQLGERQLLSVVKWSKSLPGFRNLHIDDQITLIQYSWMSLMVFGLGWRSYKHVSGQMLYFAPDLILNEQRMKESSFYSLCLTMWQIPQEFVKLQVSQEEFLCMKVLLLLNTIPLEGLRSQTQFEEMRSSYIRELIKAIGLRQKGVVSSSQRFYQLTKLLDNLHDLVKQLHLYCLNTFIQSRALSVEFPEMMSEVIAAQLPKILAGMVKPLLFHKK

This experiment covers variants of B1. In words: proximity ligation assay (PLA). The conditions noted are these: with progesterone receptor [human (endogenous in T47D and MCF7)], read off a plot.
Setting [1] is: MCF7 cells, basal (no added hormone), parent: 1.2.
The mark [2] stands for this setting: T47D cells, basal (no added hormone), parent: 6.4.

On to chain 1 Y537S, for which the response by setting is: under setting [1], 0.68 Dots/Cell; (T47D cells, R5020 (10 nM) for 30 min, parent: 11) 13 Dots/Cell; under setting [2], 1.6 Dots/Cell.

With chain 1 D538G, the response under setting [1] worked out at 0.58 Dots/Cell and the response under setting [2] stood at 1 Dots/Cell.

For the origin of these results see PMC13233901.
